Among the data in article PMC8158039 are fold of KD against adalimumab values, retold here.

The test has as its target Recombinant human neonatal Fc receptor (FcRn) (human) (UniProt P55899). Kind of test: SPR. A general note: SPR reads the build-up and loss of mass on a sensor chip optically.
Sequence of UniProt P55899 (P55899 24-365, chain 1 of 2): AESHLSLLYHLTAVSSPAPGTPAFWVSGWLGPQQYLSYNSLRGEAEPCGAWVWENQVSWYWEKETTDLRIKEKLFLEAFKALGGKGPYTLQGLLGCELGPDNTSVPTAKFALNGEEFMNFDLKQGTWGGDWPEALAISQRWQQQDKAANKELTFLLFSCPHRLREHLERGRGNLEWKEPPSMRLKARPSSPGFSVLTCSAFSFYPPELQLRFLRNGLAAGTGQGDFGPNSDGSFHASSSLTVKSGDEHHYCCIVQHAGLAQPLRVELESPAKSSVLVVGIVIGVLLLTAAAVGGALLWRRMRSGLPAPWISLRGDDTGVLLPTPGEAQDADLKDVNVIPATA
Sequence of UniProt P55899 (P61769 21-119, chain 2 of 2, further chain): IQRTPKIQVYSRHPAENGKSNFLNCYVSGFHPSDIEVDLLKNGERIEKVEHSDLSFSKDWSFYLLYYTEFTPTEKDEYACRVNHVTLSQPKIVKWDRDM

For the substance “Etanercept (from UniProt P20333 23-257) (Fc fusion)”, the fold of KD against adalimumab was 4 fold.
